Here are results for eight molecules from patent US20220380459A1 (DRAGONFLY THERAPEUTICS, published 2022).

Like-named read-outs stand apart in the source and are kept apart here.

What all share (assay): SPR, Fab captured, 37C
The target of one experiment is T1, C domain of human CD33 (human, UniProt P20138 140-259, limits assumed).
T1 construct: recombinant C domain

For experiment [1], the target named is T2, human CD33 extracellular domain (human, UniProt P20138 18-259).
T2 construct: soluble monomeric ECD; also called human CD33 ECD; hCD33
Method: (§1) Kinetics and affinity of a series of Fab fragments of anti-CD33 antibodies with different CD33 variants (human CD33 ECD, cyno CD33 ECD, V-domain of human CD33, C-domain or human CD33 and selected CD33 SNPs) were assessed by surface plasmon resonance using Biacore 8K instrument (GE Healthcare). Anti-Fab antibody was immobilized on a CMS chip using standard amine coupling chemistry. CD33 FABs were captured on the anti-Fab chip at a density of ˜100 RU. Solutions containing different concentrations of soluble monomeric CD33 or its domains were injected over the captured FABs and control surfaces at 30 μl/min at 37° C. Surfaces were regenerated between cycles by quick injection of 10 mM glycine, pH 1.8. To obtain kinetic rate constants double-referenced data were fit to a 1:1 interaction model using Biacore 8K Evaluation software (GE Healthcare). The equilibrium binding constant KD was determined by the ratio of binding rate constants kd/kₐ.
(§2) Affinity of 29 Fab fragments binding to human and cyno CD33 ECD were assayed by Biacore analysis.

The target in experiment [2] is T3, cyno CD33 extracellular domain (Cynomolgus/Rhesus (cyno)).
T3 construct: soluble monomeric ECD; also called cyno CD33 ECD
Method: as §1, §2

Experiment [3] concerns the target T2, human CD33 extracellular domain. The source holds these as a separate data set.
Experiment [4] concerns the target T4, V domain of human CD33 (human, UniProt P20138 18-139, limits assumed).
T4 construct: recombinant, fully glycosylated V domain; also called Human CD33 V domain

The target of experiment [5] is T4, V domain of human CD33. This is another data set of the same source.
Method: as §1
(§3) The ability of anti-CD33 antibodies to recognize glycosylated CD33 was assayed. […] De-glycosylation status was confirmed by a shift on SDS-PAGE and MS.
The target in experiment [6] is T5, deglycosylated V domain of human CD33 (human, UniProt P20138 18-139, limits assumed, N-glycans removed by PNGase).
T5 construct: V domain deglycosylated by PNGase before testing; also called deglycosylated V CD33
Method: as §1, §3

Experiment [7] addresses T2, human CD33 extracellular domain. The source holds these as a separate data set.
Experiment [8] has the same target. This is another data set of the same source.
Method: as §1, §2

Method for C domain of human CD33: as §1
The binding interface between the Fab fragment of each CD33 antibody to CD33 was mapped.

B1: ADI-10157 Fab (Fab, V domains shown)
VH: QVQLQESGPGLVKPSETLSLTCTVSGGSISSYYWSWIRQPPGKGLEWIGSIYYSGSTNYNPSLKSRVTISVDTSKNQFSLKLSSVTAADTAVYYCARVGGVYSTIETYGMDVWGQGTTVTVSS
VL: EIVMTQSPATLSVSPGERATLSCRASQSVSSNLAWYQQKPGQAPRLLIYGASTRATGIPARFSGSGSGTEFTLTISSLQSEDFAVYYCQQYTVYPPTFGGGTKVEIK
notes: Fab fragment; also called Ab13
One may read the Kd as the equilibrium constant for the complex coming apart. A high value points to weaker binding. As usually defined, the koff is the rate constant with which the complex falls apart. A higher koff goes with fast dissociation. One may read the kon as the second-order rate constant of association. Low readings indicate slow association, high ones fast association. Regarding B1, the binding result in the experiment with C domain of human CD33 was “no binding”; in experiment [2], “no binding (tested: 100 nM)”. Moreover, the equilibrium dissociation constant (Kd) is 2.69 nM in experiment [1]; 2.69 nM in experiment [3]; 134 nM in the experiment with V domain of human CD33 [4]; 134 nM with V domain of human CD33 [5]; 63.8 nM in [6]; 2.69 nM in experiment [7]. The molecule also showed a Kd in experiment [8] of 2.69 nM. Moreover, the koff came to 0.0076 s⁻¹ in experiment [1]; 0.0076 s⁻¹ in experiment [3]; 0.0151 s⁻¹ in the experiment with V domain of human CD33 [4]; 0.0151 s⁻¹ in the experiment with V domain of human CD33 [5]; 0.0261 s⁻¹ in [6]; 0.0076 s⁻¹ in [7]. In experiment [8], this molecule displayed a koff of 0.0076 s⁻¹. The association rate constant (kon) in experiment [1] was found to be 2.82e+06 M⁻¹ s⁻¹; in experiment [3] it was 2.82e+06 M⁻¹ s⁻¹; with V domain of human CD33 [4], 112000 M⁻¹ s⁻¹; with V domain of human CD33 [5], 112000 M⁻¹ s⁻¹; in experiment [6], 411000 M⁻¹ s⁻¹; in experiment [7] it was 2.82e+06 M⁻¹ s⁻¹.

B2: ADI-11802 Fab (Fab, V domains shown)
VH: QVQLVQSGAEVKKPGASVKVSCKASGYTFSGYYMHWVRQAPGQGLEWMGMINPYGGSTRYAQKFQGRVTMTRDTSTSTVYMELSSLRSEDTAVYYCAREAADGFVGERYFDLWGRGTLVTVSS
VL: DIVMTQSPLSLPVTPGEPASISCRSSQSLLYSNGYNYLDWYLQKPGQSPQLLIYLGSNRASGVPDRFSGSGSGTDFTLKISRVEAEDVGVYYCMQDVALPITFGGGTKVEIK
notes: Fab fragment; also called Ab23
On to B2, for which the binding result with C domain of human CD33 is on record as “no binding”; in [2], “no binding (tested: 100 nM)”. Further, the dissociation constant (Kd) stood at 3.14 nM in experiment [1]; 3.14 nM in experiment [3]; 3.2 nM in the experiment with V domain of human CD33 [4]; 3.2 nM with V domain of human CD33 [5]; 2.65 nM in [6]; 3.14 nM in experiment [7]. For the same molecule, the dissociation constant (Kd) in experiment [8] was 3.14 nM. Also, the koff in [1] stood at 0.00154 s⁻¹; in experiment [3], 0.00154 s⁻¹; with V domain of human CD33 [4], 0.00435 s⁻¹; in the experiment with V domain of human CD33 [5], 0.00435 s⁻¹; in experiment [6] it was 0.00417 s⁻¹; in experiment [7], 0.00154 s⁻¹. Further, the off-rate (koff) in experiment [8] was 0.00154 s⁻¹. The on-rate (kon) in experiment [1] amounted to 490000 M⁻¹ s⁻¹; in experiment [3], 490000 M⁻¹ s⁻¹; with V domain of human CD33 [4], 1.34e+06 M⁻¹ s⁻¹; in the experiment with V domain of human CD33 [5] it was 1.34e+06 M⁻¹ s⁻¹; in experiment [6], 1.57e+06 M⁻¹ s⁻¹; in [7], 490000 M⁻¹ s⁻¹.

B3: ADI-10173 Fab (Fab, V domains shown)
VH: QVQLVQSGAEVKKPGASVKVSCKASGYTFTSYYMHWVRQAPGQGLEWMGIINPSGGSTTYAQKFQGRVTMTRDTSTSTVYMELSSLRSEDTAVYYCAREAADGFVGERYFDLWGRGTLVTVSS
VL: not shown
notes: Fab fragment; also called Ab22
On to B3, for which the binding result with C domain of human CD33 was “no binding”; in experiment [2] it was “no binding (tested: 100 nM)”. The Kd in experiment [1] is 58.8 nM; in experiment [3] it was 58.8 nM; in [6] it was 200 nM; in experiment [7] it was 58.8 nM; in [8] it was 58.8 nM.

B4: ADI-10159 Fab (Fab, V domains shown)
VH: EVQLVESGGGLVQPGGSLRLSCAASGFTFSSYGMSWVRQAPGKGLEWVANIKQDGSEKYYVDSVKGRFTISRDNAKNSLYLQMNSLRAEDTAVYYCAREGGPYYDSSGYFVYYGMDVWGQGTTVTVSS
VL: DIQMTQSPSTLSASVGDRVTITCRASQSISSWLAWYQQKPGKAPKLLIYDASSLESGVPSRFSGSGSGTEFTLTISSLQPDDFATYYCQQYESFPTFGGGTKVEIK
notes: Fab fragment; also called Ab1; G59
In the case of B4, the binding result with C domain of human CD33 is listed as “no binding”. Moreover, the Kd was found to be 4.53 nM in experiment [1]; 74.9 nM in experiment [2]; 4.53 nM in experiment [3]; 5.56 nM with V domain of human CD33 [4]; 5.56 nM with V domain of human CD33 [5]; 12.3 nM in [6]. The molecule also came in with a Kd in experiment [7] of 4.53 nM. In addition, the off-rate constant (koff) in experiment [1] turned out to be 0.00195 s⁻¹; in experiment [2], 0.0436 s⁻¹; in experiment [3] it was 0.00195 s⁻¹; with V domain of human CD33 [4] it was 0.005 s⁻¹; in the experiment with V domain of human CD33 [5], 0.005 s⁻¹; in experiment [6], 0.012 s⁻¹. The koff in experiment [7] stood at 0.00195 s⁻¹. The kon turned out to be 429000 M⁻¹ s⁻¹ in experiment [1]; 528000 M⁻¹ s⁻¹ in experiment [2]; 429000 M⁻¹ s⁻¹ in experiment [3]; 905000 M⁻¹ s⁻¹ in the experiment with V domain of human CD33 [4]; 905000 M⁻¹ s⁻¹ with V domain of human CD33 [5]; 978000 M⁻¹ s⁻¹ in experiment [6]. This molecule gave an on-rate (kon) in [7] of 429000 M⁻¹ s⁻¹.

B5: ADI-11812 Fab (Fab, V domains shown)
VH: QVQLVQSGAEVKKPGASVKVSCKASGYTFEIYYMHWVRQAPGQGLEWMGIINPSSGSTVYAQKFQGRVTMTRDTSTSTVYMELSSLRSEDTAVYYCARGAGYDDEDMDVWGKGTTVTVSS
VL: DIQMTQSPSSVSASVGDRVTITCRASQGIDSWLAWYQQKPGKAPKLLIYAASSLQSGVPSRFSGSGSGTDFTLTISSLQPEDFATYYCQQAHSYPLTFGGGTKVEIK
notes: Fab fragment; also called Ab24
For B5, the binding result in the experiment with C domain of human CD33 is “no binding”; in [2], “no binding (tested: 100 nM)”; in the experiment with V domain of human CD33 [4], “no binding”; in experiment [6] it was “no binding”. Also, the dissociation constant (Kd) in [1], in experiment [3], in [7] and in experiment [8] was 1.23 nM in each case. The koff in experiment [1], in experiment [3], in experiment [7] and in [8] was 0.000486 s⁻¹ in each case. The kon in [1], in experiment [3] and in experiment [7] was 396000 M⁻¹ s⁻¹ each time.

B6: ADI-10177 Fab (Fab, V domains shown)
VH: EVQLVESGGGLVQPGGSLRLSCAASGFTFSSYWMSWVRQAPGKGLEWVANIKQDGSEKYYVDSVKGRFTISRDNAKNSLYLQMNSLRAEDTAVYYCARPLNAGELDVWGQGTMVTVSS
VL: DIQMTQSPSTLSASVGDRVTITCRASQSISSWLAWYQQKPGKAPKLLIYEASSLESGVPSRFSGSGSGTEFTLTISSLQPDDFATYYCQQLESYPLTFGGGTKVEIK
notes: Fab fragment; also called Ab2
With B6, the binding result in the experiment with C domain of human CD33 is “no binding”. Further, the Kd in experiment [1] was 11.4 nM; in experiment [2], 21.4 nM; in experiment [3] it was 11.4 nM; with V domain of human CD33 [4], 54.8 nM; in the experiment with V domain of human CD33 [5], 54.8 nM; in experiment [6], 38.2 nM. Also, the Kd in experiment [7] turned out to be 11.4 nM. The off-rate (koff) in experiment [1] stood at 0.00636 s⁻¹; in experiment [2], 0.00754 s⁻¹; in [3] it was 0.00636 s⁻¹; with V domain of human CD33 [4], 0.0857 s⁻¹; with V domain of human CD33 [5], 0.0857 s⁻¹; in experiment [6] it was 0.0701 s⁻¹. In experiment [7], this molecule gave an off-rate constant (koff) of 0.00636 s⁻¹. The kon in experiment [1] came to 558000 M⁻¹ s⁻¹; in [2], 353000 M⁻¹ s⁻¹; in [3] it was 558000 M⁻¹ s⁻¹; with V domain of human CD33 [4], 1.56e+06 M⁻¹ s⁻¹; with V domain of human CD33 [5], 1.56e+06 M⁻¹ s⁻¹; in experiment [6], 1.88e+06 M⁻¹ s⁻¹. In addition, in experiment [7], the kon was found to be 558000 M⁻¹ s⁻¹.

B7: ADI-11826 Fab (Fab, V domains shown)
VH: EVQLVESGGGLVQPGGSLRLSCAASGFTFPGYWMSWVRQAPGKGLEWVANINQDGSEVYYVDSVKGRFTISRDNAKNSLYLQMNSLRAEDTAVYYCAREANYYGNVGDDYWGQGTLVTVSS
VL: DIQMTQSPSSLSASVGDRVTITCRASQSIYNYLNWYQQKPGKAPKLLIYAASSTQSGVPSRFSGSGSGTDFTLTISSLQPEDFATYYCQQAFHVPITFGGGTKVEIK
notes: Fab fragment; also called Ab26
As for B7, the values for the binding result (with C domain of human CD33; in [2]) were “no binding” and “no binding (tested: 100 nM)”, respectively. Further, the dissociation constant (Kd) in [1] is 2.63 nM; in experiment [3], 2.63 nM; in the experiment with V domain of human CD33 [4], 4.38 nM; with V domain of human CD33 [5] it was 4.38 nM; in experiment [6] it was 3.69 nM; in [7], 2.63 nM. This molecule returned a Kd in [8] of 2.63 nM. In addition, the off-rate (koff) turned out to be 0.00463 s⁻¹ in experiment [1]; 0.00463 s⁻¹ in [3]; 0.0225 s⁻¹ in the experiment with V domain of human CD33 [4]; 0.0225 s⁻¹ with V domain of human CD33 [5]; 0.0198 s⁻¹ in [6]; 0.00463 s⁻¹ in experiment [7]. The koff in [8] worked out at 0.00463 s⁻¹. Also, the association rate constant (kon) was found to be 1.76e+06 M⁻¹ s⁻¹ in experiment [1]; 1.76e+06 M⁻¹ s⁻¹ in [3]; 5.12e+06 M⁻¹ s⁻¹ with V domain of human CD33 [4]; 5.12e+06 M⁻¹ s⁻¹ in the experiment with V domain of human CD33 [5]; 5.37e+06 M⁻¹ s⁻¹ in experiment [6]; 1.76e+06 M⁻¹ s⁻¹ in [7].

B8: ADI-10163 Fab (Fab, V domains shown)
VH: QVQLQESGPGLVKPSQTLSLTCTVSGGSISSGGYYWSWIRQHPGKGLEWIGSIYYSGSTYYNPSLKSRVTISVDTSKNQFSLKLSSVTAADTAVYYCARDRLDYSYNYGMDVWGQGTTVTVSS
VL: DIQMTQSPSSLSASVGDRVTITCRASQSISSYLNWYQQKPGKAPKLLIYGASSLQSGVPSRFSGSGSGTDFTLTISSLQPEDFATYYCQQVYSAPFTFGGGTKVEIK
notes: Fab fragment; also called Ab17
Regarding B8, the binding result is recorded as “no binding” in the experiment with C domain of human CD33 and “no binding (tested: 100 nM)” in experiment [2]. For the same molecule, the dissociation constant (Kd) in experiment [1] turned out to be 53.5 nM; in experiment [3] it was 53.5 nM; in [6], 152 nM; in [7], 53.5 nM; in experiment [8] it was 53.5 nM.
